Assay results as given in the supplement of paper PMC9732359.
± gives the uncertainty stated by the source.

Experiment: protein stability index of a GFP-peptide fusion (yeast GPS) (PSI 1-4); higher = more stable; sorted into four equal gates, so the index is relative within each strain
In short: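 The protein stability index of a peptide was calculated by multiplying its read frequency in each gate by that gate's number and adding the products. The peptides were tiled 17-residue stretches of yeast proteins, fused downstream of GFP on a Cherry-expressing plasmid and carried in yeast as a pooled library. Mid-log cultures in leucine-free medium were sorted into four equal gates by GFP/Cherry ratio, and each gate's plasmids were PCR-amplified and Illumina-sequenced.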

| Sequence | protein stability index (doa10∆) | protein stability index (pdr5∆) | protein stability index (san1∆) | protein stability index (ubr1∆) |
| --- | --- | --- | --- | --- |
| VESVCQKLDILVAKLKK [SMC4] | 1.9 ± 0.093 | 2.19 ± 0.051 | 2.24 ± 0.087 | 2.12 ± 0.048 |
| VEVIKQLSLDASKTNLR [GAL11] | 2.51 ± 0.063 | 2.62 ± 0.073 | 3.24 ± 0.077 | 2.71 ± 0.049 |
| VEYKLTFVPTNSDKPRD [DIS3] | 1.21 ± 0.14 | 1.31 ± 0.094 | 1.19 ± 0.24 | 1.05 ± 0.11 |
| VFLLLQAYFSRLELPVD [BRR2] | 1.59 ± 0.05 | 1.31 ± 0.043 | 1.26 ± 0.089 | 1.48 ± 0.041 |
| VFLLTTRAGGLGINLVT [ISW2] | 1.69 ± 0.076 | 1.7 ± 0.063 | 1.56 ± 0.13 | 1.4 ± 0.13 |
| VFSHAQTAVTCESCSTI [RPS27A] | 1.47 ± 0.091 | 1.2 ± 0.076 | 1.16 ± 0.13 | 1.51 ± 0.076 |
| VFVDGEANWPLPVNIRR [RPO21] | 2.99 ± 0.081 | 3.06 ± 0.085 | 3.12 ± 0.13 | 3.13 ± 0.072 |
| VGDEFKGYVFKISGGND [RPS6A] | 3.08 ± 0.28 | 3.49 ± 0.13 | 3.06 ± 0.15 | 3.58 ± 0.13 |
| VGFWKDDGDDEDLLECL [MTR3] | 2.67 ± 0.15 | 3.42 ± 0.19 | 3.5 ± 0.22 | – |
| VGKDTPFTIYDGEAVAK [PRE5] | 2.7 ± 0.075 | 3 ± 0.064 | 3.14 ± 0.088 | 3.15 ± 0.051 |
| VGSVTYQVDEDVKSSLS [YJL039C/NUP192] | 3.26 ± 0.15 | 3.2 ± 0.13 | 3.29 ± 0.062 | 3.48 ± 0.1 |
| VHCRISCQIAQPYEDRP [RRP45] | 1.63 ± 0.064 | 2.12 ± 0.12 | 1.52 ± 0.22 | 1.92 ± 0.077 |
| VHDIFSKIFNESFPDDI [CDC53] | 2.86 ± 0.069 | 2.91 ± 0.065 | 2.87 ± 0.059 | 2.82 ± 0.06 |
| VHGKAPMLMANNDVFTI [SSN3] | 2.79 ± 0.068 | 2.47 ± 0.07 | 2.48 ± 0.095 | 2.72 ± 0.074 |
| VHMYHKSLALLGYNFDG [SNF5] | 2.26 ± 0.059 | 1.78 ± 0.046 | 2.02 ± 0.08 | 2.02 ± 0.05 |
| VHNTVAAGNASSLPPGE [SNF5] | 2.82 ± 0.094 | 2.75 ± 0.071 | 2.94 ± 0.06 | 2.75 ± 0.077 |
| VHPVNEREPVPLGILHI [RRP45] | – | 2.63 ± 0.16 | – | 2.15 ± 0.19 |
| VIEAKINHEDGFIETTE [RPN3] | 1.17 ± 0.16 | 1.37 ± 0.11 | 1.3 ± 0.19 | 1.13 ± 0.083 |
| VIFKIRDRTSGQKLLAI [SRB4] | – | 3.17 ± 0.2 | 3.5 ± 0.11 | 3.33 ± 0.16 |
| VIFLSSLLTLVGSVTYQ [YJL039C/NUP192] | 1.39 ± 0.14 | 1.21 ± 0.14 | 1.14 ± 0.28 | 1.2 ± 0.13 |
| VIQDEVLAHRIGLVPLK [RPC40] | 2.94 ± 0.27 | – | – | – |
| VIRDSVTYTEHAKRKTV [HHF1] | 1.8 ± 0.081 | 1.4 ± 0.074 | 1.44 ± 0.12 | 2.03 ± 0.051 |
| VISSGPLAAGNFVSEKG [RPC53] | 2.81 ± 0.093 | 3.13 ± 0.11 | 3.14 ± 0.094 | 2.48 ± 0.078 |
| VIYRGPEPSHIDQVMMS [RET1] | 3.01 ± 0.085 | 3.23 ± 0.13 | 3.19 ± 0.067 | 2.77 ± 0.088 |
| VKADVEKSLLPKIETNV [ISW2] | 3.03 ± 0.086 | 3.18 ± 0.074 | 3.11 ± 0.062 | 2.92 ± 0.088 |
| VKDWLYDSRPLEEDSKK [PRP8] | 2.95 ± 0.19 | 2.91 ± 0.24 | 2.8 ± 0.12 | – |
| VKEIVLPLFYDLLNAAS [IRR1] | 2.36 ± 0.045 | 2.48 ± 0.052 | 2.78 ± 0.036 | 2.69 ± 0.049 |

| Sequence | protein stability index (doa10∆) | protein stability index (pdr5∆) | protein stability index (san1∆) | protein stability index (ubr1∆) |
| --- | --- | --- | --- | --- |
| VKKGPVRLPTKVLKIST [RPS20] | 2.22 ± 0.062 | 2.22 ± 0.085 | 2.54 ± 0.058 | 2.37 ± 0.064 |
| VKLTYNSPSSALRALQE [YDL088C/ASM4] | 2.42 ± 0.058 | 2.44 ± 0.066 | 2.62 ± 0.088 | 2.03 ± 0.038 |
| VKPHDEGSKSHPFGHAL [RPL27A] | 2.95 ± 0.064 | 2.97 ± 0.053 | 2.88 ± 0.08 | 3.1 ± 0.047 |
| VKPQYDEIHIPAPSKPV [BRR2] | 2.59 ± 0.097 | 2.59 ± 0.12 | 2.41 ± 0.084 | 1.83 ± 0.093 |
| VKQYNKKWPQFYAAVQK [SIN4] | 1.49 ± 0.15 | 1.93 ± 0.1 | 1.55 ± 0.1 | 1.68 ± 0.047 |
| VKRRRDMLEHINLAMNE [SRB4] | 1.3 ± 0.096 | 1.33 ± 0.12 | 1.14 ± 0.19 | 1.2 ± 0.078 |
| VKVSAAAGKANKQFAKF [RPS11A] | 2.64 ± 0.081 | 2.88 ± 0.074 | 2.85 ± 0.065 | 2.93 ± 0.044 |
| VLAAQSIGEPATQMTLN [RPO21] | 2.69 ± 0.055 | 3 ± 0.051 | 2.87 ± 0.042 | 2.91 ± 0.048 |
| VLAGDTRNITDYSINSR [PRE7] | 2.93 ± 0.09 | 3.29 ± 0.075 | 3.22 ± 0.061 | 3.24 ± 0.058 |
| VLAQYHEAKERIRQKEV [SNF6] | – | – | – | 3.4 ± 0.18 |
| VLCLTRSSYMLELVNTP [YCG1] | 1.58 ± 0.059 | 2.03 ± 0.2 | 1.77 ± 0.099 | 1.98 ± 0.087 |
| VLDHQRAIPFRRFNSSI [RPL17A] | 2.69 ± 0.095 | 2.39 ± 0.14 | 1.67 ± 0.15 | 1.4 ± 0.13 |
| VLFITPDIVGHEFTLSF [BRR2] | 1.87 ± 0.049 | 2.29 ± 0.049 | 2.18 ± 0.055 | 2.3 ± 0.04 |
| VLGIKVKIMRDPAKSRT [RPS3] | 2.67 ± 0.067 | 2.78 ± 0.054 | 2.98 ± 0.049 | 3.16 ± 0.037 |
| VLKSHSNDFEEGSTIRY [YMR129W/POM152] | 2.44 ± 0.075 | 2.8 ± 0.099 | 2.93 ± 0.067 | 2.88 ± 0.068 |
| VLNMLYWVPDWDGVIPT [RPO21] | 2.92 ± 0.067 | 2.63 ± 0.066 | 2.92 ± 0.055 | 3.16 ± 0.038 |
| VLPIFTTVFFSRQKSGL [YML031W/NDC1] | 1.53 ± 0.075 | 1.24 ± 0.082 | 1.14 ± 0.095 | 1.11 ± 0.077 |
| VLQPLLPRELPKLLDAL [SNU114] | 2.15 ± 0.072 | 2.2 ± 0.11 | 2.73 ± 0.11 | 2.6 ± 0.096 |
| VLRLRGALVDRTQPWSI [RPS0A] | 2.65 ± 0.086 | 2.44 ± 0.072 | 2.52 ± 0.067 | 3.08 ± 0.031 |
| VLSDQVGSEKVLQDLRL [YJL039C/NUP192] | 3.12 ± 0.2 | – | – | – |
| VLSIPPANHLQSDFCLS [YGL100W/SEH1] | 2.94 ± 0.11 | 2.44 ± 0.1 | 2.52 ± 0.11 | 2.59 ± 0.044 |
| VLSLGRPNLPTHNFKLS [RGR1] | 3.04 ± 0.17 | – | – | – |
| VLTAAGVERLIFYPDEY [PRE3] | 2.78 ± 0.11 | 2.94 ± 0.093 | 2.9 ± 0.074 | 2.95 ± 0.11 |
| VLVSMGSSNKAVVQTVK [YJL039C/NUP192] | 1.33 ± 0.26 | 1.5 ± 0.15 | – | 1.34 ± 0.19 |
| VMPVPNVRSSVLQKVIE [SKP1] | 2.33 ± 0.05 | 2.43 ± 0.052 | 2.38 ± 0.052 | 2.35 ± 0.045 |
| VMRNTYNTRKNAVTAAA [GAL11] | 1.78 ± 0.045 | 1.94 ± 0.051 | 2.11 ± 0.07 | 1.97 ± 0.036 |
| VMWGKVTRTHGNSGVVR [RPL33A] | 2.83 ± 0.071 | 2.94 ± 0.075 | 2.97 ± 0.051 | 2.98 ± 0.07 |
